{"source": "patent US20090098111", "key": {"[1]": {"system": "GST-XtopBP1 (972-1279) ΔRQLQ"}, "[2]": {"system": "GST-XtopBP1 (972-1279) ΔWDDP"}, "[3]": {"system": "GST-XtopBP1 (972-1279)-W1138R", "sequence (chain, as listed by the source W1138R)": "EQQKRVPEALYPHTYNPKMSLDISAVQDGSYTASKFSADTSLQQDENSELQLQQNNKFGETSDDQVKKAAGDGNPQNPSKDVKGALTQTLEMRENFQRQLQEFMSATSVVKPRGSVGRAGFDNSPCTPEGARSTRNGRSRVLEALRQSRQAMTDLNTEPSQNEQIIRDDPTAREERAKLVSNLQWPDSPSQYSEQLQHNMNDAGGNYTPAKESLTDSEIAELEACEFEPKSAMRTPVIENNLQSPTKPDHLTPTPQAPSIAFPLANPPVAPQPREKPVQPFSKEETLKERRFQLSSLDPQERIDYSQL"}, "[4]": {"system": "His6-XtopBP1 (full-length)", "sequence (chain, as listed by the source)": "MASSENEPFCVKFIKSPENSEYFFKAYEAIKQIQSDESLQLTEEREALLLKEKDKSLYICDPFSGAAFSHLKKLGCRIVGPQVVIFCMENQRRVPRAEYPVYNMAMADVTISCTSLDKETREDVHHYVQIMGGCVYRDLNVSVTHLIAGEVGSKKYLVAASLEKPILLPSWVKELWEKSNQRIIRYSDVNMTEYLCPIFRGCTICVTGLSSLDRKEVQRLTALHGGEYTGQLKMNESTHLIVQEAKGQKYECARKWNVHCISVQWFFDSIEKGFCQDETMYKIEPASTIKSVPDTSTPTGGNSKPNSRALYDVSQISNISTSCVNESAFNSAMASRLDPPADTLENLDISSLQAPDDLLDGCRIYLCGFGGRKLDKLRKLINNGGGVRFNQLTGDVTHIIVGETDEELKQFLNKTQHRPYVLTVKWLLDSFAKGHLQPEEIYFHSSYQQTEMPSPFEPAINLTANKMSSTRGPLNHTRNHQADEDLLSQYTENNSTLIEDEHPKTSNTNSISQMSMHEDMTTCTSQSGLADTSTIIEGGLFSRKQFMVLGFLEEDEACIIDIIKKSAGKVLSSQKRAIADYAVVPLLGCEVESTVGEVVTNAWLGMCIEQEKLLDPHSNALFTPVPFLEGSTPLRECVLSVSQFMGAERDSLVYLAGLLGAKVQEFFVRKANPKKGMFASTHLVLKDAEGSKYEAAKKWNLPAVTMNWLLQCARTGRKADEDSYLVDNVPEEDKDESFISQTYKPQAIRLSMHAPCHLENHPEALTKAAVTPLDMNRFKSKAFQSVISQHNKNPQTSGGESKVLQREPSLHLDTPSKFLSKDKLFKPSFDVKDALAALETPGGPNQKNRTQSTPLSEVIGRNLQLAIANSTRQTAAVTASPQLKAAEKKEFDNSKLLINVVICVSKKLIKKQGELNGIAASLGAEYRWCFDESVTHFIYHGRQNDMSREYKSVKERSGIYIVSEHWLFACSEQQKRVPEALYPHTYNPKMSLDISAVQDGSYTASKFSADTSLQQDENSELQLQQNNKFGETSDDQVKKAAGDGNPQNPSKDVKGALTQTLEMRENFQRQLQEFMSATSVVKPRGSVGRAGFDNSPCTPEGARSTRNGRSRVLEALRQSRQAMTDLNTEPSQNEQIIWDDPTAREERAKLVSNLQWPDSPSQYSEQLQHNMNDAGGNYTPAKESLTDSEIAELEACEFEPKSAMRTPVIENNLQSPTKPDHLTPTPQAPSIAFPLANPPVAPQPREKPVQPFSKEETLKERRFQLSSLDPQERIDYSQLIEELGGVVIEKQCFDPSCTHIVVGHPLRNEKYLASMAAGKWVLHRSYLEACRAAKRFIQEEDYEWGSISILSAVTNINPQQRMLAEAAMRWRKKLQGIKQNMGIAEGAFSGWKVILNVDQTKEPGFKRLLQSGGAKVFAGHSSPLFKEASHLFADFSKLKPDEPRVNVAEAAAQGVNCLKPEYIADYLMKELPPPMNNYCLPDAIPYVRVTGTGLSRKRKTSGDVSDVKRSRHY"}, "[5]": {"system": "His6-XtopBP1-W1138R (full-length)", "sequence (chain, as listed by the source W1138R)": "as the sequence (chain, as listed by the source) above, with W1138R counted along it"}}, "data": [{"substance": "Xatr (endogenous Xenopus ATR in egg extracts)", "values": [{"measurement": "phosphorylation of 35S-Xchk1 in egg extracts (electrophoretic mobility)", "setting": "GST-XtopBP1 (1197-1513)", "result": "the GST-XtopBP1 (1197-1513) fragment, which does not activate Xatr, did not induce any phosphorylation of Xchk1 in egg extracts"}, {"measurement": "phosphorylation of 35S-Xchk1 in egg extracts (electrophoretic mobility)", "setting": "[1]", "result": "none of the ΔRQLQ, ΔWDDP, or W1138R mutants of the 972-1279 fragment could induce ectopic activation of Xchk1 in these extracts"}, {"measurement": "phosphorylation of 35S-Xchk1 in egg extracts (electrophoretic mobility)", "setting": "[2]", "result": "none of the ΔRQLQ, ΔWDDP, or W1138R mutants of the 972-1279 fragment could induce ectopic activation of Xchk1 in these extracts"}, {"measurement": "phosphorylation of 35S-Xchk1 in egg extracts (electrophoretic mobility)", "setting": "[3]", "result": "none of the ΔRQLQ, ΔWDDP, or W1138R mutants of the 972-1279 fragment could induce ectopic activation of Xchk1 in these extracts"}, {"measurement": "phosphorylation of 35S-Xchk1 in egg extracts (electrophoretic mobility)", "setting": "GST-XtopBP1 (972-1279)", "result": "the 972-1279 fragment could elicit a very robust phosphorylation of Xchk1"}, {"measurement": "checkpoint-dependent phosphorylation of Xchk1 in XtopBP1-depleted egg extracts with aphidicolin", "setting": "[4]", "result": "addition of wild-type His6-XtopBP1 to the XtopBP1-depleted extract was able to rescue the phosphorylation of Xchk1 fully"}, {"measurement": "checkpoint-dependent phosphorylation of Xchk1 in XtopBP1-depleted egg extracts with aphidicolin", "setting": "[5]", "result": "the W1138R mutant could not restore the phosphorylation of Xchk1"}]}]}
